The values that follow come from US20250320303A1 (SHENGHE CHINA BIOPHARMACEUTICAL, published 2025).

In assay [1] the target is T1, human W3785-hProl.ECD.His (Human-TNFR2-His) protein (human, UniProt P20333 23-257).
T1 construct: extracellular domain; not shown: His tag
T1 sequence (looked up): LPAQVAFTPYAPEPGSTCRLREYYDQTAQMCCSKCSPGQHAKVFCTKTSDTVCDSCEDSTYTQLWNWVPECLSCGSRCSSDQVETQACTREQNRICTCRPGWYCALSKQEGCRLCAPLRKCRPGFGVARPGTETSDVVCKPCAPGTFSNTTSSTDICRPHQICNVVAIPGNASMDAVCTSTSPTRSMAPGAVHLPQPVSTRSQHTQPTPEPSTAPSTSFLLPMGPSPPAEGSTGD
The experiment in a line: indirect ELISA on coated Human-TNFR2-His. On the procedure: (1) Coating: Human-TNFR2-His was diluted to 0.5 μg/mL with coating solution (1×PBS, pH 7.4), and coated into a 96-well ELISA plate at 100 μL/well at 4° C. overnight. The coating solution was poured off, and the plate was washed with 1×PBST at 300 μL per well, washed with a plate cleaning instrument for 4 times, and patted dry on sheet paper. [0184] (2) Blocking: it was blocked with 3% non-fat dry milk at 300 μL/well, and incubated at 37° C. for 1 h. The blocking solution was poured off, washed by a plate cleaning instrument for 4 times, and patted dry on sheet paper. [0185] (3) Sample dilution: the reference product and the test product were diluted with 3% non-fat dry milk to 10 μg/mL, and this was used as the initial concentration for 3-fold dilution with a total of 11 gradients of dilution, and another one blank well was set up, and only diluent was added. It was incubated at 100 μL/well at 37° C. for 1 h. Liquid in the wells was discarded, washed by a plate cleaning instrument for 4 times, and patted dry on the sheet paper. [0186] (4) Addition of enzyme-labeled secondary antibody: Peroxidase-conjugated AffiniPure F(ab′)2 Fragment Goat Anti-Human IgG was diluted with 3% non-fat dry milk at 1:20,000. It was incubated at 100 μL/well at 37° C. for 1 h. It was washed by a plate cleaning instrument for 6 times and patted dry on sheet paper. […] (5) Color development: TMB color development solution was added at 100 μL/well and wrapped with aluminium foil, and the color was developed at 37° C. without light for 8 min. [0188] (6) Termination of color development: terminal solution 1 M HCl was added to terminate the color development reaction at 100 μL/well. [0189] (7) Reading at 450 nm on the enzyme labeler. [0190]
Background: ELISA stands for enzyme-linked immunosorbent assay.

Assay [2] deals with T1, human W3785-hProl.ECD.His …. Briefly: BLI (Octet Red96e), antibody on AHC sensor, Human-TNFR2-His in solution, multiple concentrations. A general note: Biolayer interferometry detects binding as a change in optical thickness at a sensor tip.
The target in assay [3] is T2, Recombinant human TNFR2-His Tag protein (Sino, Cat: 10417-H08H) (human, UniProt P20333 23-257).
T2 construct: Bought protein; also called hTNFR2; not shown: His tag
T2 sequence (looked up): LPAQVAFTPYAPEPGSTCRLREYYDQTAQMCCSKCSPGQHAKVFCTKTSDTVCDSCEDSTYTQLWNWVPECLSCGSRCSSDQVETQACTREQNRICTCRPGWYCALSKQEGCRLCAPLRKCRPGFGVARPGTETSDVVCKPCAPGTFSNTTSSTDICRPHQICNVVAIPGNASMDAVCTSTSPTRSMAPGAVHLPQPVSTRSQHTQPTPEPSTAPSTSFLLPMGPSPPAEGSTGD
The experiment in a line: competition ELISA: captured TNFR2-His, antibody titrated against 1.6 nM biotin-TNF-alpha (competitor). On the procedure:
Anti-His antibody (1 μg/mL) was coated at 50 μL/well, incubated at 4° C. overnight and washed 3 times with PBST. 2% BSA was added at 200 μL/well, incubated at room temperature for 1 hour and washed 3 times with PBST. 0.25 μg/mL (containing 2% BSA) of recombinant human TNFR2-His Tag protein (Sino; Cat: 10417-H08H) was added at 50 μL/well, incubated for 1 hour at room temperature and washed 3 times with PBST. Primary antibody (isotype control or candidate antibody) was added at a concentration of 100 nM and diluted 4-fold in 11 gradients with a solution containing 1.6 nM recombinant human TNF-alpha-Biotin protein (Sino; Cat: 10602-HANE-B) and 2% BSA, incubated for 2 hours at room temperature and washed 3 times with PBST. Secondary antibody SA-HRP (1:5000) containing 2% BSA was added at 50 μL/well, incubated for 1 hour at room temperature and washed 3 times with PBST.
After washing, TMB developed the color for 10 min, and the OD450 reading was determined by the enzyme labeler after the display was terminated. Based on the experimental results, it was judged whether the candidate antibodies had ligand blocking activity. As shown in Table 2 and FIG. 2, 2 sequences show better ligand blocking ability than BMK2; 6 sequences show equivalent ligand blocking ability to BMK2.

In assay [4] the target is T3, human TNFR2 (tumor necrosis factor receptor 2), on cells (human, UniProt P20333 23-461).
T3 construct: whole, on cells; also called hTNFR2; CHOK1-hTNFR2
T3 sequence (looked up): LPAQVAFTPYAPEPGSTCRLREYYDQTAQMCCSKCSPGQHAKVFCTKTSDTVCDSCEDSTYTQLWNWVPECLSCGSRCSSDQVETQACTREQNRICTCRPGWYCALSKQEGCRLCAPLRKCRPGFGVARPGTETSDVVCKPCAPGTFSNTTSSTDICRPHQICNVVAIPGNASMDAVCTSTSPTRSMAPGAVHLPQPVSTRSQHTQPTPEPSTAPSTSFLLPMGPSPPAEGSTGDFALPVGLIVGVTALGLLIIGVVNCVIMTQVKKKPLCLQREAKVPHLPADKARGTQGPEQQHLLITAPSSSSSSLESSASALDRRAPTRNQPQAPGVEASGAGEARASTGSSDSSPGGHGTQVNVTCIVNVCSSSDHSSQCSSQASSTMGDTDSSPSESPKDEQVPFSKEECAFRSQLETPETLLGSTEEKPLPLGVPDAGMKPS
The experiment in a line: flow cytometry on CHOK1-hTNFR2 cells. On the procedure:
CHOK1-hTNFR2 cells were plated at 1×10⁵/well (containing 1% BSA). 100 μL of isotype control and candidate antibodies were added at a concentration of 100 nm and 4-fold diluted in 11 gradients (containing 1% BSA). Cells were incubated at 4° C. for 1 hour and then washed twice with excess FACS buffer. Cells were resuspended in 100 μL of FACS buffer, and 100 μL of goat anti-rat IgG Fc-AF647 (1:500) containing 1% BSA was added, incubated at 4° C. without light for 30 minutes and washed twice with excess FACS buffer. Cells were fixed in fixation buffer and subsequently analyzed by flow cytometry. The FACS method screened for candidate antibodies with high specific binding activity to human TNFR2.
(Flow cytometry measures light scatter and fluorescence of single cells or particles in a stream.)

For assay [5], the target named is T2, Recombinant human TNFR2-His Tag protein …. Briefly: SPR (Biacore 8K), antibody captured by anti-rat Fc, 10 nM TNFR2-His as analyte, 1:1 model. On the procedure: The CM5 sensor chip was activated at a flow rate of […] for 420 s. The channel was then injected with 30 μg/mL of anti-rat Fc IgG in 10 mM NaAc (pH 4.5) at a flow rate of 10 μL/min. The chip was inactivated with 1 M ethanolamine-hydrochloric acid (GE) for 420 s at a flow rate of 10 μL/min.
Candidate antibodies in running buffer 1×HBS-EP+(10 mM HEPES, 150 mM NaCl, 3 mM EDTA, 0.05% Tween 20, pH 7.4) were captured onto Fc2 with anti-rat Fc IgG at a flow rate of 10 μL/min. The 10 nM recombinant human TNFR2-His Tag protein (Sino; Cat: 10417-H08H) and running buffer were sequentially injected into Fc1-Fc2 at a flow rate of […], bound for 180 s, and then dissociated for 3600 s. 10 mM glycine (pH 1.5) was injected as regeneration buffer after each dissociation.
Result plots for the reference channel Fc1 and the buffer channel were subtracted from the test result plots. The experimental data fit the 1:1 binding model. The molecular weight of 26.6 kDa was used to calculate the molar concentration of recombinant human TNFR2-His Tag protein.

Assay [6] deals with T1, human W3785-hProl.ECD.His …. The experiment in a line: BLI (Octet Red96e), antibody on AHC sensor, Human-TNFR2-His in solution, single concentration. On the procedure:
After equilibration of the AHC sensor with 0.02% PBST (0.02% Tween 20, pH 7.4, 1*PBS) as buffer for 60 s, the TNFR2 antibody in the sample plate was immobilized for 300 s, and second equilibration was performed for 180 s. 100 nM of human W3785-hProl.ECD.His (Human-TNFR2-His) protein was bound with the TNFR2 antibody for 300 s and then dissociated for 600 s. After dissociation, 10 mM glycine (pH 2.0) was used as regeneration buffer to regenerate for 30 s.

B1: Antibody 21 (antibody, V domains shown)
VH: EVQLVESGGGLVKPGGSLRLSCAASGFTFSNAWMGWVRQAPEKGLEWVGQIKDKSNNYPTYYAESVKGRFTISRDDSKNTLYLQMNSLKTEDTAVYYCTTYGDFFDYWGQGTLVTVSS
VL: DIQMTQSPSSLSASVGDRVTITCRASEDIYNALAWYQQKPGKVPKLLLYNANSLHTGVPSRFSGSGSGTDYTLTISSLQPEDFATYFCQQYYDHPLTFGQGTKLEIK
notes: detected with anti-human IgG and captured on AHC sensors
Regarding B1, the midpoint of the response in assay [1], the EC50, lay at 0.0147 µg/mL. For the same molecule, in assay [2], the affinity, expressed as Kd, was 0.177 nM; the koff is 0.000145 s⁻¹; the kon is 821000 M⁻¹ s⁻¹.

B2: Antibody 22 (antibody, V domains shown)
VH: EVQLVESGGGLVKPGGSLRLSCAASGFTFSNAWMGWVRQAPEKGLEWVGQIKDKSNNYPTYYAESVKGRFTISRDDSKNTLYLQMNSLKTEDTAVYYCTTYGDFFDYWGQGTLVTVSS
VL: DIQMTQSPSSLSASVGDRVTITCRASEDIYQGLAWYQQKPGKVPKLLLYNANSLHTGVPSRFSGSGSGTDYTLTISSLQPEDFATYFCQQYYDHPLTFGQGTKLEIK
notes: as for B1
B2 yielded a concentration for a half-maximal effect (EC50) in assay [1] of 0.0137 µg/mL. In assay [2], this molecule registered a Kd of 0.33 nM, a koff of 0.000165 s⁻¹ and a kon of 500000 M⁻¹ s⁻¹.

B3: Antibody 17 (antibody, V domains shown)
VH: QVQLVQSGAEVKKPGASVKVSCKASGYTFTDYIIHWVRQAPGQGLEWMGWIDPDYGNTDYADKFKKRVTMTADTSISTAFMELSRLRSDDTAVYYCARDEGSPLVMDAWGQGTLVTVSS
VL: DIQMTQSPSSLSASVGDRVTITCQGSQNIDNYLAWFQQKPGKAPKLLIYSTYSLQTGVPSRFSGSRSGTDFTLTISSLQPEDFATYFCFQYNNGYMFGGGTKLELK
notes: as for B1
Regarding B3, the EC50 in assay [1] was found to be 0.0149 µg/mL. In assay [2], the Kd was found to be 0.133 nM, the dissociation rate constant (koff) was 0.000124 s⁻¹ and the kon is 933000 M⁻¹ s⁻¹.

B4: Antibody 10 (antibody, V domains shown)
VH: EVQLVETGGGLVQPGKSLKLTCATSGFTFSNAWMGWVRQSPEKQLEWVAQIKDKSNNYPTYYAESVKGRFTISRDDSESSVYLQMNSLKEEDTAIYYCTGYGDFFDYWGQGVVVTVSS
VL: DIQMTQSPASLSASLGETVTIECRASEDIYNGLAWYQQKPGNSPRLLIFNANSLHTGVPSRFSGSGSGTQYSLKINSLQSEDVASYFCQQYYDHPLTFGSGIKLEIK
notes: Rat monoclonal antibody from a hybridoma
Turning to B4, in assay [3], the IC50 was > 100 nM and the “Inhibition rate (%)” value stood at 12.2%. Besides, in assay [4], the EC50 came out at 0.077 nM and the “Maximum average fluorescence value” turned out to be 907. Also, in assay [5], the Kd came out at 0.15 nM, the koff came out at 7.4e-05 s⁻¹ and the kon was 492000 M⁻¹ s⁻¹.

B5: Antibody 11-xIgG1K (antibody, V domains shown)
VH: EVQLQQSGPELRRPGSSVKLSCKASGYSITDYLLHWVKHSPEHGLEWIGWIDPEDGKTKYGQKFQSKATLTADTSSNAAYMQLSSLTSEDSATYFCAANSGTGTMDAWGQGASVTVSS
VL: DIVMTQSPTSMSISVGDRVTLNCKASQNVGSNVDWYQQKTGQSPKVLLYKASIRYTGVPDRFTGSGSGTEFTFTITNMQAEDLAVYFCMQSKSYPITFGSGTKLEIKR
notes: Rat-human chimeric antibody, human IgG1 kappa
With B5, in assay [2], the dissociation constant Kd was determined as 0.317 nM, the koff was 0.000171 s⁻¹ and the kon is 542000 M⁻¹ s⁻¹. In assay [6], the Kd was determined as 0.396 nM.

B6: Antibody 11 (antibody, V domains shown)
VH: EVQLQQSGPELRRPGSSVKLSCKASGYSITDYLLHWVKHSPEHGLEWIGWIDPEDGKTKYGQKFQSKATLTADTSSNAAYMQLSSLTSEDSATYFCAANSGTGTMDAWGQGASVTVSS
VL: DIVMTQSPTSMSISVGDRVTLNCKASQNVGSNVDWYQQKTGQSPKVLLYKASIRYTGVPDRFTGSGSGTEFTFTITNMQAEDLAVYFCMQSKSYPITFGSGTKLEIK
notes: as for B4
In the case of B6, in assay [3], the IC50 is > 100 nM and the “Inhibition rate (%)” value was determined as 22.4%. For the same molecule, in assay [4], a half-maximal response (EC50) required 0.493 nM and the “Maximum average fluorescence value” came out at 1010. Besides, in assay [5], the Kd was 1.4 nM, the koff is 0.000169 s⁻¹ and the kon was found to be 120000 M⁻¹ s⁻¹.

B7: Antibody 04-xIgG1K (antibody, V domains shown)
VH: EVHLQQSGPEVGRPGSSVKISCKASGYTFTDYIIHWVKQSPGQGLEWMGWIDPDYGNTDYADKFKKKATLTADASSNTAFIHLSRLTSEDTATYFCARDDGSPLVMDAWGQGTSVTVSS
VL: NIQLTQSPSLLSASVGDRVTLSCNGSQNIDNYLAWFQQKLGEAPKLLIYSTYSLQTGIPSRFSGSRSGTDYTLTISSLQPEDVATYFCFQYNNGYMFGAGTKLELKR
notes: as for B5
On to B7, for which, in assay [1], the EC50 was determined as 0.00581 µg/mL. In assay [2], the Kd is 0.0606 nM, the koff worked out at 6.65e-05 s⁻¹ and the kon was determined as 1.1e+06 M⁻¹ s⁻¹. The same molecule came in with a Kd in assay [6] of 0.148 nM.

Usually EC50 stands for the concentration that produces a half-maximal response. What is called Kd is a measure of binding affinity in units of concentration. By koff is commonly meant the first-order rate constant of dissociation. One may read the kon as a measure of how fast the partners come together. The term IC50 denotes the concentration at which inhibition is half-maximal.
